Reference: publication PMC3260337

Tests used:
[1] = target: AS27[Y33R] monobody, displayed on yeast; experiment: flow cytometry on cells
[2] = target: AS15[H33R] monobody, displayed on yeast; experiment: flow cytometry on cells

With “Abl SH2 domain, biotinylated (for yeast display measurements) (from UniProt P00519 112-232) (domain or fragment)” the fold reduction of affinity against AS27 [1] was 8 times and the fold reduction of affinity against AS15 [2] was 4 times.
